# Measurements taken from the DeepSol protein solubility set.
# Assay: soluble on expression in E. coli; label from the status in PepcDB or PDB records
row,Sequence,soluble on expression in E. coli
1,MLQKLIQILRRNEYVKNVYKNTVSNFIETSIPEITPFNARTSSIKGKRLNLLVPSINQEHMFGGISTALKLFEQFDNKKFKKRIILTDATPNPKDLQSFKSFKYVMPEEDKDFALQIVPFNDRYNRTIPVAKHDIFIATAWWTAYAAQRIVSWQSDTYGIPPNKILYIIQDFEPGFYQWSSQYVLAESTYKYRGPQIAVFNSELLKQYFNNKGYNFTDEYFFQPKINTTLKNYINDKRQKEKIILVYGRPSVKRNAFTLIVEALKIFVQKYDRSNEWKIISVGEKHKDIALGKGIHLNSLGKLTLEDYADLLKRSSIGISLMISPHPSYPPLEMAHFGLRVITNKYENKDLSNWHSNIVSLEQLNPENIAETLVELCMSFNNRDVDKKESSNMMFYINEFNEFSFIKEIEEKL,soluble
2,MGSDKIHHHHHHMGIGIIIASHGKFAEGIHQSGSMIFGEQEKVQVVTFMPNEGPDDLYGHFNNAIQQFDADDEILVLADLWSGSPFNQASRVAGENPDRKMAIITGLNLPMLIQAYTERLMDAGAGVEQVAANIIKESKDGIKALPEDLNPVEETAATEKVVNALQGAIPAGTVIGDGKLKINLARVDTRLLHGQVATAWTPASKADRIIVASDEVAQDDLRKQLIKQAAPGGVKANVVPISKLIEASKDPRFGNTHALILFQTPQDALRAVEGGVEINELNVGSMAHSTGKTMVNNVLSMDKEDVATFEKLRDLGVTFDVRKVPNDSKKNLFELIQKTNIK,not soluble
3,MSTFSLLRLPQKTLKNVILQMGHIELICTSLLSNKTKHFIREFCIFKASRFSIELNQSVQFKMFNNGRWSEYSFKNGMICITSFGIIQITMTFRTPQFNAGSWFNHFLCVLSPSKIESVTVTDAFDELRFQLVKKFLEKIQFMVLWIRTTSATSHMVRLFSEVLPVDQFWLSQDDRLNSSQFSALRPVLSKELETIFIDNRMPLNDLLITCSTAIHIIKSPLTDKEINVFLKHWMTGLKPELEHIYIEKSGVFNQTQLLDGINHDAPTDRKFKMYGNDAFRGIDLHLGQGIKATLVYENDFFHSKIHIASHNSKYISFE,not soluble
4,MGGSHHHHHHGMASALVKSRLNSWFQHRPPGASPERYLGLPGSLKWEDRGPSGQGQGQFLIQQVTLKIPISIEFVFESGSAQAGGNQALPRLAGSLLTQALESHAEGFRERFEKTFQLKEKGLSSGEQVLGQAALSGLLGGIGYFYGQGLVLPDIGVEGSEQKVDPALFPPVPLFTAVPSRSFFPRGFLWDEGFHQLVVQRWDPSLTREALGHWLGLLNADGWIGREQILGDEARARVPPEFLVQRAVHANPPTLLLPVAHMLEVGDPDDLAFLRKALPRLHAWFSWLHQSQAGPLPLSYRWRGRDPALPTLLNPKTLPSGLDDYPRASHPSVTERHLDLRCWVALGARVLTRLAEHLGEAEVAAELGPLAASLEAAESLDELHWAPELGVFADFGNHTKAVQLKPRPPQGLVRVVGRPQPQLQYVDALGYVSLFPLLLRLLDPTSSRLGPLLDILADSRHLWSPFGLRSLAASSSFYGQRNSEHDPPYWRGAVWLNVNYLALGALHHYGHLEGPHQARAAKLHGELRANVVGNVWRQYQATGFLWEQYSDRDGRGMGCRPFHGWTSLVLLAMAEDY,not soluble
5,MGSDKIHHHHHHMVENYNFSGVPMRLDDLTYMNPWWEGREDYHVRRWKEQRLHWKPGWLEKLSLKPFSLNFVLGPRQVGKTTGIKLLIQELLKDNPPESILYINVKVLPGHRELLNLLREFQELKEKEGVKTGYIFLDEVTSLEGWWRGVKPLIDAGLLKNDVVTVTGSSSLGVRRDIELFPGRRGSGKTIEVMPLSFPEYVEVMGLKKPELYREKVLKLFEDYLTTGGFPTSINGLPMEDLLGAYIGEIVRFGKSLEIAKETLSALIRSAPSATSFRALAGITSGYSYKVVQDYIELFTELYVLGIAYLKQGNQVLYKREKKFFFRDPLLARLFALWSGTELKEDALYEWVVQEHLYRRFGEVYYYRNSYEIDAIAGDLKVEVKAGKTHRRYPKNVRVLEKEDVPFFLLELTHESTSRF,not soluble
6,MSLKIAVIGCGAMGSIYAAKLAAAGEQVLAVDRHRPSVERINRDGLRVTGPGCDQVVPLRASTGAVDETMDLVVLAVKAADVEAAARQALPMLGPDTAVLTIQNGLGSAETVAGVVGAQRVAVGIASGFGASRVAPGHVHHNAMRAMRFGPYSSLPHARVESIARTWAHAGFDAAAVTDIAAMQWEKLICNVAYSAPCALTGMTVGQVMDDAEMGPVSRAAATEAWSVARASGVAIAVADAVEHVRAFGAQMPDAKPSALLDHEARRVSEIDVINGAVPRQGARVGVDAPVNATLTAVVKSIERRWREGHHHHHH,not soluble
7,MAIRRLRTIFVSLLLGLAASATQAADRSDRNVTAKLEGRFEWDFALFDNDTRGTPNRSNNEIRRFWLDVTGKVFAFDYTIEGNFTNLQDKFKGKSIEMGDVYLRHDFGNTGTLTLGQFKQHFSLDDRTSPDYGQFLERSGGANTLAPEYHKGVSWKATHQNTTWWVSAYSLDSISLSNVNGRGLGGRGTWSPDTPEGDVLHLGLSLAHQRYDHPGSDGMTALSIRPLPAGHLSDNSGITLAHFANGRDTKVNRWALEYAQVRGPLSWQSEYIGGAFNDGMQRATVQSAYGFVSWFVTGESRTYDRKTGRFTRIKTLHNPRGALELALRYDRMWGNQHHNNQPNFLNASTASCTLGVNWYIKPNLRLMLNLIDSRNRDRLAGTVLDHTRALTGRLHYDF,not soluble
8,MGSDKIHHHHHHMRYRPVIGLEIHVQLSTKTKAFCSCPADVFELPPNTAICPVCTGQPGALPVPNEEMIRFAVKTALALNCKIHKYSRFDRKNYFYPDLPKGYQISQYFYPIATEGFLEIDGDEGRKKVRIRRLHLEEDAGKLVHEGDSITRASYSLVDMNRCGVPLIEIVTEPDISSPREARVFMEKLRSIVRYLGVSTGDMEKGALRCDANISVVDTETGRQSNRVEVKNMNSFRFVERALEYEFERIVKAMERGEDVERETRGWDMATKITVSMRGKEEESDYRYFPEPDIPPVVLSDEYLEEVKKELPELPDEKAERFMREYGLPEYDAKVLTSSKELAEFFEECVKVVNRPKDLSNWIMTEVLRELNERNIEITESKLTPQHFADLFKLMDEGKISIKIAKEIFPEVFETGKMPSQIVEEKGLTQINDEKLIEELVKKAMEQNPKAVQDYKSGKKKAAGFFVGYVMRETKGKANPELTNRIIQKLLEGE,not soluble
9,MSGRHEACITPARRARQCLNRGNTMRHLPLFSLMLFPASVYAADSDGANLN,not soluble
10,MAKRKICQAMAVVLALGMCTTGLTGCGNEKRADGKTEIEVVSYKPEAVKAFEKIEKQFNETHDDIHLTISSPNEAMTILKTRFIREDYPDIIAIGGDINYSNFLDADLFEDISDLDAVDNVKEAYLDMDKELEFIPKDGTYALPYAANAAGVLYNKDMFAENGWKVPTTWSEFTALCDEIKESGTLPLYLGFKDTWTCLAPWNALAVGLCDSDTCNQVNMGNTTFEEAYSPVADKIRTLLDYAEDNPYAYSYNDACTAFARGESAMYTIGSYAIPQIKSVNPDMNIGSFTFPANDNEADNVLNSGIDLQLSVMKACKNKEAAYEVLEYLYSDETIQTYLDDQGGIACKEGDFAIPDTLEDMQEYIKDNRMSDYQDHHYPSEMSVDAMIQTYLLDTGDNAKEKFLKKFDSDWERYNRDLIREVQDYQKEQEDAK,not soluble
11,MIFYFSGTGNSKWIANQLSKEQQEDLFFIPDAWKNDTWEFSLREDEKIGFVFPVYSWAPPVIVQEFIRKLVLKGYQQQYLFFVCSCGDDTGLTRQVMEKALAARGWRCNAGFSVIMPNNYVLFLGFDVDSKELEKKKLAEAVPALEKVSRLITGRETVFACKEGSLPFIKTRIINPLFVRYQMSPKPFHATSECIGCKRCEKSCPVGNITMKERRPVWGKNCTACLACYHVCPQHAVQYGKKTKGKGHYFNPDSAY,not soluble
12,MFTKSGDDGNTNVINKRVGKDSPLVNFLGDLDELNSFIGFAISKIPWEDMKKDLERVQVELFEIGEDLSTQSSKKKIDEKYVKWLEERTVEYRKESGPVKLFVIPGGSEEASVLHVTRSVARRVERNAVKYTKELPEINRMIIVYLNRLSSLLFAMALVANKRRNVSEKIYDIGKFW,soluble
13,MGNTMCPKMESAFSLLGKRWNGLIIHVLMDGPKRFKEITETIPMISQKMLAERLKELEQNEIVERQVLPETPVKVIYTLTEKGTALQAVFQEMQAWADQFCEPGDTVCEEEKLEHHHHHH,soluble
14,MSLNCERVWLNVTPATLRSDLADYGLLEPHALGVHEGRIHALVPMQDLKGPYPAHWQDMKGKLVTPGLIDCHTHLIFAGSRAEEFELRQKGVPYAEIARKGGGIISTVRATRAASEDQLFELALPRVKSLIREGVTTVEIKSGYGLTLEDELKMLRVARRLGEALPIRVKTTLLAAHAVPPEYRDDPDSWVETICQEIIPAAAEAGLADAVDVFCEHIGFSLAQTEQVYLAADQYGLAVKGHMDQLSNLGGSTLAANFGALSVDHLEYLDPEGIQALAHRGVVATLLPTAFYFLKETKLPPVVALRKAGVPMAVSSDINPGTAPIVSLRMAMNMACTLFGLTPVEAMAGVTRHAARALGEQEQLGQLRVGMLADFLVWNCGHPAELSYLIGVDQLVSRVVNGEETLHGEGHHHHHH,soluble
15,MLRQIVLMCAIHTACSFSIRDIINGKRGADAAIPAPCPTWHPFACPSGECVPIKYLCDGSPDCSDEYDENKSMCTAATRPPVEETQAFLKALMSAHGKDFLVKVFGPKAKAELSGMGGVDKVAVALSQTPTADLFASEMKLDDGETQHMLEVMEGILNGSTDELTSNEAADFRFFVQKLQETGFF,not soluble
16,MGSDKIHHHHHHMDIRQLTYFIAVAEAKNYSRAAKSLFVTQPTLSQSIKKLEAELNTILFLQNGRQLALTEAGEILYEKGQLLMTNVNQMVTEIQQLNQEKKEGIRVGLTSLFAIQFMKQISTFMATHSNVEVSLIQDGSRKLQELLAKGKIDIGLLSFPSTRNDITIEPLQTSTKGYKVSIVMPKSHPLATLPEIELNDLRDYKVASLNEHYMLGEMLPRKCRALGFDPHIVFKHNDWEVLIHSLQDLNAVTILPSEFESISQVQDLCWVPLKDKNNFYPIGIAYRNDTSFSPMIEEFLSLLKTN,not soluble
17,MILNPQKLSVDFGNGITATEPIIPRRYTLTHSDITAKLFLNIGLTYAYNKMTTMRDEVLGEWVKKSQDYSYQVFLHVDGRLGPKTTAIRNKIFRRELPLALEAIRYGDKRFFNAHPYLDNAPITVFFISTNPNFNKIENWGTFSDYNIESYYRNLEHHHHHH,soluble
18,MAHHHHHHMDAKLEARMASVWEVVSSRHAVEATDLSLIQNVTRALAAMHERVEQQHAELTRWHRQNYKLMCTMVVHVNWREEDHRQLRDELVNVRQQLGRVAVRGDVPLLRPRNGG,not soluble
19,MGSDKIHHHHHHMNKDFTFTIKSSCFDENYNPSENTRITTNFANLARGKSRQENLRNTLVMMDNRFNTLAYWDNPKANRYSVELEIISVEIDIEGNGDTFPAIEILKTNIVDKKTNERIEGIVGNNFSSYVRDYDFSVLLPEHNKSHPGFSTPDNFGDLHGKLFKCFTNSKFYKDNFNKQPVICLSVSSKNTYHRTGNQHPVLGIEYQQNEPSLTDHYFERMGLQARYFMPANSVAPLAFYFSGDLLNDYTNLELISTISTMETFQKIYRPEIYNANSAAGQYYQPNLNNQDHSLTKIVYDRVERSQLAIEQGKFTEEHFIKPYKNILEQWSAHYAR,not soluble
20,MDERDALRISREIAGEVRKAIASMPLRERVKDVGMGKDGTPTKAADRVAEDAALEILRKERVTVVTEESGVLGEGDVFVALDPLDGTFNATRGIPVYSVSLCFSYSDKLKDAFFGYVYNLATGDEYYADSSGAYRNGERIEVSDAEELYCNAIIYYPDRKFPFKRMRIFGSAATELCFFADGSFDCFLDIRPGKMLRIYDAAAGVFIAEKAGGKVTELDGESLGNKKFDMQERLNIVAANEKLHPKLLELIK,soluble
